Values quoted from earlier work in article PMC10217895.
pKd: −log10 of the molar value. Like-named read-outs stand apart in the source and are kept apart here. Values belong to the substance of their own block, whether it stands above or below them.

Key:
[1] = molecular target: von Willebrand factor (Homo sapiens) (UniProt P04275)
SCARA5 (Homo sapiens) = SCARA5 (Homo sapiens) (UniProt Q6ZMJ2)
SIGLEC5 (Homo sapiens) = SIGLEC5 (Homo sapiens) (UniProt O15389)
[2] = molecular target: von Willebrand factor (Homo sapiens) (UniProt P04275); remark: listed apart in the source
LRP1 (Homo sapiens) = LRP1 (Homo sapiens) (UniProt Q07954)
LDLR (Homo sapiens) = LDLR (Homo sapiens) (UniProt P01130)
Chain of LDLR (Homo sapiens) (P01130 22-788): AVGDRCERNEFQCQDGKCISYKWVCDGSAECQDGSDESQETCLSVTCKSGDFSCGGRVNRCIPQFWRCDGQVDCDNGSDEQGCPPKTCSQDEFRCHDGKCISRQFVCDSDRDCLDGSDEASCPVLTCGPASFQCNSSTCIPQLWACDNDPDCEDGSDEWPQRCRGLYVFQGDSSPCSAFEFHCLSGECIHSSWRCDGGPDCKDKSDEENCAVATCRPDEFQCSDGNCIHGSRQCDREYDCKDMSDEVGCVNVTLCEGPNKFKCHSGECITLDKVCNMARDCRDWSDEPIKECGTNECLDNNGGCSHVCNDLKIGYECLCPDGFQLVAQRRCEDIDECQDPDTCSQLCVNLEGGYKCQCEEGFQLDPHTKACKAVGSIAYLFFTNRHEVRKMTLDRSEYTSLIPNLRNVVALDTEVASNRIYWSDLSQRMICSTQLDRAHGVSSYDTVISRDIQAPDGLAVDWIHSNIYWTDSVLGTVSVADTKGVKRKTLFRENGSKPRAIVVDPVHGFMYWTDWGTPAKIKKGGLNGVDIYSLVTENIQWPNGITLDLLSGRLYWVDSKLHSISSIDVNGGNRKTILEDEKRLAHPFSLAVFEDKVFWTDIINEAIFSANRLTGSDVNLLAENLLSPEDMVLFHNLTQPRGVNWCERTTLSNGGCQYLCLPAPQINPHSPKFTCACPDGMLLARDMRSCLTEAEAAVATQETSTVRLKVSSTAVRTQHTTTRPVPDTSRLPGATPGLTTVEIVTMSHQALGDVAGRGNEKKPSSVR

ASGPR (Homo sapiens) = ASGPR (Homo sapiens) (UniProt P07306)
Chain of ASGPR (Homo sapiens) (P07306 whole entry, chain 1 of 2): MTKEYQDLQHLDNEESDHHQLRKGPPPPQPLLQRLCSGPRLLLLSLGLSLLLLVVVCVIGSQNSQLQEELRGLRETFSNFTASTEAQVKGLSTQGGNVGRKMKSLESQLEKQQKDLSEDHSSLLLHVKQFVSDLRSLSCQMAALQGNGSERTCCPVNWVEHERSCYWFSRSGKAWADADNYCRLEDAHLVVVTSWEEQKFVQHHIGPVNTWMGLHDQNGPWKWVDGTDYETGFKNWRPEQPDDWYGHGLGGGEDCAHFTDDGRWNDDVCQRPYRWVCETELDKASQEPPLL
Chain of ASGPR (Homo sapiens) (P07307 whole entry, chain 2 of 2, further chain): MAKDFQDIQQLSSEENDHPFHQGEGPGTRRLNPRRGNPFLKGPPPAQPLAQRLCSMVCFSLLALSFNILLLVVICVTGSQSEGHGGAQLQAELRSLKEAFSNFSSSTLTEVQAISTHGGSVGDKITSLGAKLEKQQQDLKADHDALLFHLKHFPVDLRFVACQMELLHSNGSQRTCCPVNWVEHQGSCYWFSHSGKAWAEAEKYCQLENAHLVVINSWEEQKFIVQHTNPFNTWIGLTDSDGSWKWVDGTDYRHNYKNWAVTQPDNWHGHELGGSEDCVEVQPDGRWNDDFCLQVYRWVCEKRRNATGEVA

Chain of Factor VIII (P00451 760-1332): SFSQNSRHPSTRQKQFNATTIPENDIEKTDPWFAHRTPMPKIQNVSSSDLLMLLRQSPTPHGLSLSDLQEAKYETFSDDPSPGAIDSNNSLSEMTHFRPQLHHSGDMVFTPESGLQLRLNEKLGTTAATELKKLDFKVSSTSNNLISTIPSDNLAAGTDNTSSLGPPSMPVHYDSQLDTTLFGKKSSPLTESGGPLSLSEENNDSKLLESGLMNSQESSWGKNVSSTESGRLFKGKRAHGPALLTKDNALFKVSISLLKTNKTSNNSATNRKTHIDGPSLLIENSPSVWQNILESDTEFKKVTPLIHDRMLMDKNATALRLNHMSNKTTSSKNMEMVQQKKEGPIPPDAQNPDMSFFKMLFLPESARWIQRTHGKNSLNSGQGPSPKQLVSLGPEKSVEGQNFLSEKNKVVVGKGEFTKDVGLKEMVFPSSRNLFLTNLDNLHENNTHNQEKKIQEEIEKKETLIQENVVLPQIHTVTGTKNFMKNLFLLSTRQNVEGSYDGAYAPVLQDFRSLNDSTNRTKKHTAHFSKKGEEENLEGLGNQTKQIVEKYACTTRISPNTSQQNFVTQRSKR
Chain of FVIII-KB013bv (P00451 20-759): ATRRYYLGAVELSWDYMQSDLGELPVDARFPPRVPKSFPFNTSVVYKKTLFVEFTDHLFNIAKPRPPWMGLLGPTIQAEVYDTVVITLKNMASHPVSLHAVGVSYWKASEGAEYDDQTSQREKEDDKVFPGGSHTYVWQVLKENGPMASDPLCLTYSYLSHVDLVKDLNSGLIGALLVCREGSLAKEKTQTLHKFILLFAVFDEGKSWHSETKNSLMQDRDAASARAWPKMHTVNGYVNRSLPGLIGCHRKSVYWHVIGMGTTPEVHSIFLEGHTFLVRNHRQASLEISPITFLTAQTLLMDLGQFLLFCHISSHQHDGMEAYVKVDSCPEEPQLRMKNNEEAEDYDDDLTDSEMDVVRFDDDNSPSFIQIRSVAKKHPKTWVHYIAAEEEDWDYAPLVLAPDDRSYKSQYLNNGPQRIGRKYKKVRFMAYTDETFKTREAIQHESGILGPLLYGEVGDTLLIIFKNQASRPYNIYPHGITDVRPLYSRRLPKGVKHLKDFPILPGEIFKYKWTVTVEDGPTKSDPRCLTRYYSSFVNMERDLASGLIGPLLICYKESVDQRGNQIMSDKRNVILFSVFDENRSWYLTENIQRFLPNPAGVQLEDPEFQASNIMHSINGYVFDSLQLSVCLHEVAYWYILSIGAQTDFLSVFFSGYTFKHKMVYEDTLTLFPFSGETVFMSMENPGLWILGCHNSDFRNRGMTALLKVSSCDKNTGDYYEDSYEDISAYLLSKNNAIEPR
Chain of FVIII-KB013bv (P00451 1668-2351): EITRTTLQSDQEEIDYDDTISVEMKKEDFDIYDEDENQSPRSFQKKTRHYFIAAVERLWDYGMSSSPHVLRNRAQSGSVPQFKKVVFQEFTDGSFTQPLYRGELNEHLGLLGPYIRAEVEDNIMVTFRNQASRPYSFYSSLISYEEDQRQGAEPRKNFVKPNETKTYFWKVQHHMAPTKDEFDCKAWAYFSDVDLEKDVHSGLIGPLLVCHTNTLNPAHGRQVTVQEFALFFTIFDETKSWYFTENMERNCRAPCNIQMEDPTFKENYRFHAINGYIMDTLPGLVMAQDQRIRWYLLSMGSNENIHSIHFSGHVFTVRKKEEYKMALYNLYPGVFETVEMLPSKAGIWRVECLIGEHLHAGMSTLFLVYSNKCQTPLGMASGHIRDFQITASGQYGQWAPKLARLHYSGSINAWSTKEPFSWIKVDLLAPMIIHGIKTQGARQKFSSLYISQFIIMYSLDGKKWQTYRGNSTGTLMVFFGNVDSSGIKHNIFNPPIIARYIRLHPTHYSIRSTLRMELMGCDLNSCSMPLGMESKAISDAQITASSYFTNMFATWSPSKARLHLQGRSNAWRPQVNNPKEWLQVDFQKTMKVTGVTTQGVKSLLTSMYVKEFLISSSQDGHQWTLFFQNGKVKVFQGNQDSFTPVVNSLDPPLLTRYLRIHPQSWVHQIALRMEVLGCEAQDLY
Chain of SIGLEC5 (Homo sapiens) (O15389 17-441): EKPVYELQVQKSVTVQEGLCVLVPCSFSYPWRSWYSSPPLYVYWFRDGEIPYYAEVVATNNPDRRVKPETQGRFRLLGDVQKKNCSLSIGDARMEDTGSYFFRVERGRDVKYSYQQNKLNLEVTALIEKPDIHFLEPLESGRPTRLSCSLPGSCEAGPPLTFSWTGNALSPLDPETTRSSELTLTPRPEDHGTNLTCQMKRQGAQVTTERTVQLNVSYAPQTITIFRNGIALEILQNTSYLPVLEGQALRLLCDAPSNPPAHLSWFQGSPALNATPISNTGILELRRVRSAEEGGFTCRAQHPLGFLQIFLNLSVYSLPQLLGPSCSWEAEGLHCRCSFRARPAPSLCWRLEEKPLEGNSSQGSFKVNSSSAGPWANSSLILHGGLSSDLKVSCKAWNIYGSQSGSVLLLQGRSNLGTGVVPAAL
Chain of SCARA5 (Homo sapiens) (Q6ZMJ2 whole entry): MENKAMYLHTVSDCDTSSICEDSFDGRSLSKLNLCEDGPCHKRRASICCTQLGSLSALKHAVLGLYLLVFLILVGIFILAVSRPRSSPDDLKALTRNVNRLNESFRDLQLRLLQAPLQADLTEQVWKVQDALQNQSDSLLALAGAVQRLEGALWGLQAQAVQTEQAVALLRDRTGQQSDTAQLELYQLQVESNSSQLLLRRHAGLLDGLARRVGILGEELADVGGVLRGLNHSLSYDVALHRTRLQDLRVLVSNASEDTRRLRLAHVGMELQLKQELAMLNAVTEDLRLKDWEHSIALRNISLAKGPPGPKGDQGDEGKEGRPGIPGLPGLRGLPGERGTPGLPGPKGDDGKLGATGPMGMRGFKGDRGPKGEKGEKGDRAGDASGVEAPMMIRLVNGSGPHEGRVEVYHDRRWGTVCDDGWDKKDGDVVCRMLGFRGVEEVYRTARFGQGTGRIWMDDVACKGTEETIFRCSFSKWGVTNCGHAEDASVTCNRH

pKd [1]: 10.89
Substance: FVIII-KB013bv (from UniProt P00451)

pKd (SCARA5 (Homo sapiens)): 9.30
Substance: von Willebrand factor (from UniProt P04275)

pKd (SIGLEC5 (Homo sapiens)): 8.10 | pKd [2]: 9.30 | pKd (LRP1 (Homo sapiens)): 7.70 | pKd (LDLR (Homo sapiens)): 7.35 | pKd (ASGPR (Homo sapiens)): 8.70
Substance: Factor VIII (from UniProt P00451)
